How the values were obtained:
soluble human FcRn [1] = target: T1, soluble human FcRn (human, UniProt P55899 24-297; P61769 21-119); assay: SPR (Biacore), pH 7.0
T1 construct: Heterodimer of alpha chain and beta2-microglobulin; also called hFcRn

soluble human FcRn [2] = target: T1, soluble human FcRn; assay: SPR (Biacore), pH 7.0, 25 C;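 further: antibodies captured on a protein L-coated CM4 chip with human FcRn injected as analyte, KD obtained from ka and kd fitted to sensorgrams, in sodium phosphate buffer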
Method: An appropriate amount of protein L (ACTIGEN) was immobilized onto Sensor chip CM4 (GE Healthcare) by the amino coupling method, and the chip was allowed to capture an antibody of interest. Then, diluted FcRn solutions and running buffer (as a reference solution) were injected to allow human FcRn to interact with the antibody captured on the sensor chip. The running buffer used comprised 50 mmol/l sodium phosphate, 150 mmol/l NaCl, and 0.05% (w/v) Tween20 (pH 7.0). FcRn was diluted using each buffer. The chip was regenerated using 10 mmol/l glycine-HCl (pH 1.5). Assays were carried out exclusively at 25 degrees C. The association rate constant ka (1/Ms) and dissociation rate constant kd (1/s), both of which are kinetic parameters, were calculated based on the sensorgrams obtained in the assays, and KD (M) of each antibody for human FcRn was determined from these values. Each parameter was calculated using Biacore T100 Evaluation Software (GE Healthcare).

soluble human FcRn [3] = target: T1, soluble human FcRn; assay: SPR (Biacore), pH 7.0; remark: listed apart in the source

| Binder | Kd (soluble human FcRn [1]) [nM] | Kd (soluble human FcRn [2]) [nM] | Kd (soluble human FcRn [3]) [nM] |
| --- | --- | --- | --- |
| IgG1-F1371 (antibody) heavy: QVQLQESGPGLVKPSETLSLTCAVSGHSISHDHAWSWVRQPPGEGLEWIGFISYSGITNYNPSLQGRVTISRDNSKNTLYLQMNSLRAEDTAVYYCARSLARTTAMDYWGEGTLVTVSSASTKGPSVFPLAPSSKSTSGGTAALGCLVKDYFPEPVTVSWNSGALTSGVHTFPAVLQSSGLYSLSSVVTVPSSSLGTQTYICNVNHKPSNTKVDKKVEPKSCDKTHTCPPCPAPELRGGPKVFLFPPKPKDTLYITREPEVTCVVVDVSHEDPEVKFNWYVDGVEVHNAKTKPREEQYNSTYRVVSVLTVLHQDWLNGKEYKCKVSNKALPAPIEKTISKAKGQPREPQVYTLPPSRDELTKNQVSLTCLVKGFYPSDIAVEWESNGQPENNYKTTPPVLDSDGSFFLYSKLTVDKSRWQQGNVFSCSVMHEALDYHVTRKELSLSP light: not shown | 110 | 110 |  |
| IgG1-F1379 (antibody) heavy: QVQLQESGPGLVKPSETLSLTCAVSGHSISHDHAWSWVRQPPGEGLEWIGFISYSGITNYNPSLQGRVTISRDNSKNTLYLQMNSLRAEDTAVYYCARSLARTTAMDYWGEGTLVTVSSASTKGPSVFPLAPSSKSTSGGTAALGCLVKDYFPEPVTVSWNSGALTSGVHTFPAVLQSSGLYSLSSVVTVPSSSLGTQTYICNVNHKPSNTKVDKKVEPKSCDKTHTCPPCPAPELRGGPKVFLFPPKPKDTLYISRTPEVTCVVVDVSHEDPEVKFNWYVDGVEVHNAKTKPREEQYNSTYRVVSVLTVLHQDWLNGKEYKCKVSNKALPAPIEKTISKAKGQPREPQVYTLPPSRDELTKNQVSLTCLVKGFYPSDIAVEWESNGQPENNYKTTPPVLDSDGSFFLYSKLTVDKSRWQQGNVFSCSVMHEALHYHFTQKSLSLSP light: not shown | 280 | 280 |  |
| IgG1-F1378 (antibody) heavy: QVQLQESGPGLVKPSETLSLTCAVSGHSISHDHAWSWVRQPPGEGLEWIGFISYSGITNYNPSLQGRVTISRDNSKNTLYLQMNSLRAEDTAVYYCARSLARTTAMDYWGEGTLVTVSSASTKGPSVFPLAPSSKSTSGGTAALGCLVKDYFPEPVTVSWNSGALTSGVHTFPAVLQSSGLYSLSSVVTVPSSSLGTQTYICNVNHKPSNTKVDKKVEPKSCDKTHTCPPCPAPELRGGPKVFLFPPKPKDTLYISRTPEVTCVVVDVSHEDPEVKFNWYVDGVEVHNAKTKPREEQYNSTYRVVSVLTVLHQDWLNGKEYKCKVSNKALPAPIEKTISKAKGQPREPQVYTLPPSRDELTKNQVSLTCLVKGFYPSDIAVEWESNGQPENNYKTTPPVLDSDGSFFLYSKLTVDKSRWQQGNVFSCSVMHEALHYHTTQKSLSLSP light: not shown | 360 | 360 |  |
| Fv-4-F947 (antibody, human IgG1, kappa) heavy: QVQLQESGPGLVKPSETLSLTCAVSGHSISHDHAWSWVRQPPGEGLEWIGFISYSGITNYNPSLQGRVTISRDNSKNTLYLQMNSLRAEDTAVYYCARSLARTTAMDYWGEGTLVTVSSASTKGPSVFPLAPSSKSTSGGTAALGCLVKDYFPEPVTVSWNSGALTSGVHTFPAVLQSSGLYSLSSVVTVPSSSLGTQTYICNVNHKPSNTKVDKKVEPKSCDKTHTCPPCPAPELLGGPSVFLFPPKPKDVLYISRTPEVTCVVVDVSHEDPEVKFNWYVDGVEVHNAKTKPREEQYNSTYRVVSVLQPLHADWLNGKEYKCKVSNKALPAPIEKTISKAKGQPREPQVYTLPPSRDELTKNQVSLTCLVKGFYPSDIAVEWESNGQPENNYKTTPPVLDSDGSFFLYSKLTVDKSRWQQGNVFSCSVMHEALHYHVTQKSLSLSP light: DIQMTQSPSSLSASVGDSVTITCQASTDISSHLNWYQQKPGKAPELLIYYGSHLLSGVPSRFSGSGSGTDFTFTISSLEAEDAATYYCGQGNRLPYTFGQGTKVEIERTVAAPSVFIFPPSDEQLKSGTASVVCLLNNFYPREAKVQWKVDNALQSGNSQESVTEQDSKDSTYSLSSTLTLSKADYEKHKVYACEVTHQGLSSPVTKSFNRGEC |  |  | 11.1 |
| Fv-4-F1058 (antibody, human IgG1, kappa) heavy: QVQLQESGPGLVKPSETLSLTCAVSGHSISHDHAWSWVRQPPGEGLEWIGFISYSGITNYNPSLQGRVTISRDNSKNTLYLQMNSLRAEDTAVYYCARSLARTTAMDYWGEGTLVTVSSASTKGPSVFPLAPSSKSTSGGTAALGCLVKDYFPEPVTVSWNSGALTSGVHTFPAVLQSSGLYSLSSVVTVPSSSLGTQTYICNVNHKPSNTKVDKKVEPKSCDKTHTCPPCPAPELLGGPSVFLFPPKPKDTLYISRTPEVTCVVVDVSHEDPEVKFNWYVDGVEVHNAKTKPREEQYNSTYRVVSVLTVLHQDWLNGKEYKCKVSNKALPAPIEKTISKAKGQPREPQVYTLPPSRDELTKNQVSLTCLVKGFYPSDIAVEWESNGEPENNYKTTPPVLDSDGSFFLYSKLTVDKSRWQQGNVFSCSVMHEALHYHVTQKSLSLSP light: DIQMTQSPSSLSASVGDSVTITCQASTDISSHLNWYQQKPGKAPELLIYYGSHLLSGVPSRFSGSGSGTDFTFTISSLEAEDAATYYCGQGNRLPYTFGQGTKVEIERTVAAPSVFIFPPSDEQLKSGTASVVCLLNNFYPREAKVQWKVDNALQSGNSQESVTEQDSKDSTYSLSSTLTLSKADYEKHKVYACEVTHQGLSSPVTKSFNRGEC |  |  | 130 |
| Fv-4-F1059 (antibody, human IgG1, kappa) heavy: QVQLQESGPGLVKPSETLSLTCAVSGHSISHDHAWSWVRQPPGEGLEWIGFISYSGITNYNPSLQGRVTISRDNSKNTLYLQMNSLRAEDTAVYYCARSLARTTAMDYWGEGTLVTVSSASTKGPSVFPLAPSSKSTSGGTAALGCLVKDYFPEPVTVSWNSGALTSGVHTFPAVLQSSGLYSLSSVVTVPSSSLGTQTYICNVNHKPSNTKVDKKVEPKSCDKTHTCPPCPAPELLGGPSVFLFPPKPKDTLYISRTPEVTCVVVDVSHEDPEVKFNWYVDGVEVHNAKTKPREEQYNSTYRVVSVLTVLHQDWLNGKEYKCKVSNKALPAPIEKTISKAKGQPREPQVYTLPPSRDELTKNQVSLTCLVKGFYPSDIAVEWESNGRPENNYKTTPPVLDSDGSFFLYSKLTVDKSRWQQGNVFSCSVMHEALHYHVTQKSLSLSP light: DIQMTQSPSSLSASVGDSVTITCQASTDISSHLNWYQQKPGKAPELLIYYGSHLLSGVPSRFSGSGSGTDFTFTISSLEAEDAATYYCGQGNRLPYTFGQGTKVEIERTVAAPSVFIFPPSDEQLKSGTASVVCLLNNFYPREAKVQWKVDNALQSGNSQESVTEQDSKDSTYSLSSTLTLSKADYEKHKVYACEVTHQGLSSPVTKSFNRGEC |  |  | 140 |

The remaining binders from weak to strong by Kd (soluble human FcRn [1]), led by results:

| Kd (soluble human FcRn [1]) [nM] | Kd (soluble human FcRn [2]) [nM] | Kd (soluble human FcRn [3]) [nM] | Binder |
| --- | --- | --- | --- |
| 150 | 150 |  | IgG1-F1419 (antibody) heavy: QVQLQESGPGLVKPSETLSLTCAVSGHSISHDHAWSWVRQPPGEGLEWIGFISYSGITNYNPSLQGRVTISRDNSKNTLYLQMNSLRAEDTAVYYCARSLARTTAMDYWGEGTLVTVSSASTKGPSVFPLAPSSKSTSGGTAALGCLVKDYFPEPVTVSWNSGALTSGVHTFPAVLQSSGLYSLSSVVTVPSSSLGTQTYICNVNHKPSNTKVDKKVEPKSCDKTHTCPPCPAPELRGGPKVFLFPPKPKDTLYISRTPEVTCVVVDVSHEDPEVKFNWYVDGVEVHNAKTKPREEQYNSTYRVVSVLTVLHQDWLNGKEYKCKVSNKALPAPIEKTISKAKGQPREPQVYTLPPSRDELTKNQVSLTCLVKGFYPSDIAVEWESNGQPENNYKTTPPVLDSDGSFFLYSKLTVDKSRWQQGNVFSCSVMHEALDWHVTRKELSLSP light: not shown |
| 130 | 130 |  | IgG1-F1420 (antibody) heavy: QVQLQESGPGLVKPSETLSLTCAVSGHSISHDHAWSWVRQPPGEGLEWIGFISYSGITNYNPSLQGRVTISRDNSKNTLYLQMNSLRAEDTAVYYCARSLARTTAMDYWGEGTLVTVSSASTKGPSVFPLAPSSKSTSGGTAALGCLVKDYFPEPVTVSWNSGALTSGVHTFPAVLQSSGLYSLSSVVTVPSSSLGTQTYICNVNHKPSNTKVDKKVEPKSCDKTHTCPPCPAPELRGGPKVFLFPPKPKDTLYISRTPEVTCVVVDVSHEDPEVKFNWYVDGVEVHNAKTKPREEQYNSTYRVVSVLTVLHQDWLNGKEYKCKVSNKALPAPIEKTISKAKGQPREPQVYTLPPSRDELTKNQVSLTCLVKGFYPSDIAVEWESNGQPENNYKTTPPVLDSDGSFFLYSKLTVDKSRWQQGNVFSCSVMHEALDWHVTKKELSLSP light: not shown |
| 37 | 37 |  | IgG1-F1413 (antibody) heavy: QVQLQESGPGLVKPSETLSLTCAVSGHSISHDHAWSWVRQPPGEGLEWIGFISYSGITNYNPSLQGRVTISRDNSKNTLYLQMNSLRAEDTAVYYCARSLARTTAMDYWGEGTLVTVSSASTKGPSVFPLAPSSKSTSGGTAALGCLVKDYFPEPVTVSWNSGALTSGVHTFPAVLQSSGLYSLSSVVTVPSSSLGTQTYICNVNHKPSNTKVDKKVEPKSCDKTHTCPPCPAPELRGGPKVFLFPPKPKDTLYITREPEVTCVVVDVSHEDPEVKFNWYVDGVEVHNAKTKPREEQYNSTYRVVSVLQVLHADWLNGKEYKCKVSNKALPAPIEKTISKAKGQPREPQVYTLPPSRDELTKNQVSLTCLVKGFYPSDIAVEWESNGQPENNYKTTPPVLDSDGSFFLYSKLTVDKSRWQQGNVFSCSVMHEALDYHVTKKELSLSP light: not shown |
| 13 | 13 |  | IgG1-F1416 (antibody) heavy: QVQLQESGPGLVKPSETLSLTCAVSGHSISHDHAWSWVRQPPGEGLEWIGFISYSGITNYNPSLQGRVTISRDNSKNTLYLQMNSLRAEDTAVYYCARSLARTTAMDYWGEGTLVTVSSASTKGPSVFPLAPSSKSTSGGTAALGCLVKDYFPEPVTVSWNSGALTSGVHTFPAVLQSSGLYSLSSVVTVPSSSLGTQTYICNVNHKPSNTKVDKKVEPKSCDKTHTCPPCPAPELRGGPKVFLFPPKPKDTLYITREPEVTCVVVDVSHEDPEVKFNWYVDGVEVHNAKTKPREEQYNSTYRVVSVLTPLHQDWLNGKEYKCKVSNKALPAPIEKTISKAKGQPREPQVYTLPPSRDELTKNQVSLTCLVKGFYPSDIAVEWESNGQPENNYKTTPPVLDSDGSFFLYSKLTVDKSRWQQGNVFSCSVMHEALDYHVTKKELSLSP light: not shown |
